In article PMC9143278:

Biological target: human and murine IL-1R1 on HEK-Blue IL-1R cells (human and murine)

SEAP reporter (620 nm) in HEK-Blue IL-1R cells after overnight incubation; EC50, positive control	SEAP reporter (620 nm) in HEK-Blue IL-1R cells after overnight incubation; EC50 of a 3-fold dilution series from 100 ng/mL	Molecule
0.25		huIL-1β (commercial recombinant human IL-1β) (from UniProt P01584 117-269) (ligand)
	2.4	IL-1β(H30G)-Tag (ligand)
	2.7	IL-1β(R11G)-Tag (ligand)
	0.89	IL-1β(N32G)-Tag (ligand)
	5.8	IL-1β(Q15G)-Tag (ligand)
	0.75	IL-1β-Tag (His-TEV-muIL-1β-Tag, wild type) (from UniProt P10749 118-269) (ligand)
0.21		muIL-1β (commercial recombinant murine IL-1β) (ligand) VPIRQLHYRLRDEQQKSLVLSDPYELKALHLNGQNINQQVIFSMSFVQGEPSNDKIPVALGLKGKNLYLSCVMKDGTPTLQLESVDPKQYPKKKMEKRFVFNKIEVKSKVEFESAEFPNWYISTSQAEHKPVFLGNNSGQDIIDFTMESVSS
